How the values were obtained:
[1] = target: T1, CD8α (aa 1–206)-(HTR6-CT)-BioID2-HA ( | mouse, UniProt P01732 22-206; Q9R1C8 326-440); test: proximity labelling; BioID2 proximity biotinylation in HEK293T cells cotransfected with EGFP-TEV-Stag-TULP3 (or S-tagged TULP3-NTD or -CTD) and CD8α(1–206)-(IC3 or CT of a GPCR)-BioID2-HA; 50 μM biotin for the last 16 h; TULP3 purified from lysate by tandem purification (GFP-Trap, TEV digestion, S-protein agarose); its biotinylation detected with NeutrAvidin-HRP, relative to total TULP3 and normalised to the β2AR …; conditions: partners not purified
T1 construct: signal peptide in the construct; CD8α, extracellular and transmembrane regions, aa 1–206; serotonin receptor 6 (HTR6), mouse, C-terminal tail (HTR6-CT, aa 326–440); also called HTR6-CT(WT); wild-type HTR6-CT; source: HEK293T, cotransfected, in cells; not shown: BioID2, C-terminal, kept; HA, C-terminal, kept

[2] = target: T2, CD8α (aa 1–206)-(SSTR3-CT)-BioID2-HA ( | mouse, UniProt P01732 22-206; P30935 326-428); test: as above; conditions: partners not purified
T2 construct: signal peptide in the construct; CD8α, extracellular and transmembrane regions, aa 1–206; somatostatin receptor 3 (SSTR3), mouse, C-terminal tail (SSTR3-CT, aa 326–428); source: HEK293T, cotransfected, in cells; not shown: BioID2, C-terminal, kept; HA, C-terminal, kept
T2 sequence (P01732 22-206, tags or fused parts left off): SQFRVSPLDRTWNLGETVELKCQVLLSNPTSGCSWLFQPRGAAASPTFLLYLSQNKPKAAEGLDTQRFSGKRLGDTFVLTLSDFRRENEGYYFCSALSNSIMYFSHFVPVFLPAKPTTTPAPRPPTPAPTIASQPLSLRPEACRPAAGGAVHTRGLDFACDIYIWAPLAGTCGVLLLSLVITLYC

T1 sequence (P01732 22-206, tags or fused parts left off): as above

B1: EGFP-TEV-Stag-TULP3 (natural protein, UniProt O75386 1-442, looked up)
chain: MEASRCRLSPSGDSVFHEEMMKMRQAKLDYQRLLLEKRQRKKRLEPFMVQPNPEARLRRAKPRASDEQTPLVNCHTPHSNVILHGIDGPAAVLKPDEVHAPSVSSSVVEEDAENTVDTASKPGLQERLQKHDISESVNFDEETDGISQSACLERPNSASSQNSTDTGTSGSATAAQPADNLLGDIDDLEDFVYSPAPQGVTVRCRIIRDKRGMDRGLFPTYYMYLEKEENQKIFLLAARKRKKSKTANYLISIDPVDLSREGESYVGKLRSNLMGTKFTVYDRGICPMKGRGLVGAAHTRQELAAISYETNVLGFKGPRKMSVIIPGMTLNHKQIPYQPQNNHDSLLSRWQNRTMENLVELHNKAPVWNSDTQSYVLNFRGRVTQASVKNFQIVHKNDPDYIVMQFGRVADDVFTLDYNYPLCAVQAFGIGLSSFDSKLACE
notes: TULP3, ciliary trafficking adapter; the printed limit of its C-terminal domain (aa 184–442) points to a protein of 442 aa; A TEV site lies between EGFP and the S-tag; EGFP is cut off only after the first immunoprecipitation, that is after the labelling in cells; also called S-tagged TULP3; not shown: EGFP, N-terminal, kept; S-tag, N-terminal, kept
- fold biotinylated TULP3 over β2AR-CT control [1]: 4 fold
- fold biotinylated TULP3 over β2AR-CT control [2]: 20 fold

— paper PMC7772773, “HTR6 and SSTR3 ciliary targeting relies on both IC3 loops and C-terminal tails” (Life Science Alliance, 2020)
